This assay has as its target T1, Xenopus Smurf1 (Xenopus, UniProt Q9PUN2 1-731).
T1 construct: Used as a yeast two-hybrid fusion and as in vitro translated 35S-Met-labelled protein; also called Xsmurf; 35S-labelled Smurf1
Briefly: in vitro co-immunoprecipitation: 35S-Smurf1 on FLAG-Smad bound to anti-FLAG beads. As for the experimental part: (A) Smurf1 interacts with Smad1. Yeast two-hybrid assays were done on yeast co-transformed with combinations of Xenopus Smurf1 (Xsmurf) together with Smad1, Smad2, lamin or vector alone. […] Co-immunoprecipitation on in vitro translated proteins was done by incubating 35S-labelled Smurf1 together with in vitro translated, 35S-Met trace-labelled Flag-tagged Smad1 (35S-F/Smad1), Smad2 (35S-F/Smad2) or Smad4 (35S-F/Smad4) immobilized on anti-Flag affinity gel matrices. After washing, bound proteins were eluted and analyzed by SDS-PAGE (right panel).

T1 sequence (Q9PUN2 whole entry, the tested form may be a part): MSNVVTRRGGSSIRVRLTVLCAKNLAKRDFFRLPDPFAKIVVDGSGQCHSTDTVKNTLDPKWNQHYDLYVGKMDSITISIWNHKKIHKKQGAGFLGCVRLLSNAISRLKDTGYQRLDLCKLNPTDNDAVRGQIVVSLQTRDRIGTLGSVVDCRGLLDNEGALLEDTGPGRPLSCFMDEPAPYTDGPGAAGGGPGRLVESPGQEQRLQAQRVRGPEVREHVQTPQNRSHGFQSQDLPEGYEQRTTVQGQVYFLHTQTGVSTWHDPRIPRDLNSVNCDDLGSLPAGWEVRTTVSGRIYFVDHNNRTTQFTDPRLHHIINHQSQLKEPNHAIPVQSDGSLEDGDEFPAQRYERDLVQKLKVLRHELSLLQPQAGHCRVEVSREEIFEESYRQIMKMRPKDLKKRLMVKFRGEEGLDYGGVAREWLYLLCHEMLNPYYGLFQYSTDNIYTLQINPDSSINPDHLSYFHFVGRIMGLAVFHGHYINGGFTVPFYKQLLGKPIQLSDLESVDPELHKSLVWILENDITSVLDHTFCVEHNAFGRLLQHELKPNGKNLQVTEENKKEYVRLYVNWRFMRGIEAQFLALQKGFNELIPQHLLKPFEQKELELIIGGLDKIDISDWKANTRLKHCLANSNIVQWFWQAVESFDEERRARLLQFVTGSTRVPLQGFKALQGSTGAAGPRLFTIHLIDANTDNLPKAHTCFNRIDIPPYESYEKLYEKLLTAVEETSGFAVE

B1: human Smad2, FLAG-tagged at the C-terminus, in vitro translated (other, UniProt Q15796 1-467, looked up)
chain: MSSILPFTPPVVKRLLGWKKSAGGSGGAGGGEQNGQEEKWCEKAVKSLVKKLKKTGRLDELEKAITTQNCNTKCVTIPSTCSEIWGLSTPNTIDQWDTTGLYSFSEQTRSLDGRLQVSHRKGLPHVIYCRLWRWPDLHSHHELKAIENCEYAFNLKKDEVCVNPYHYQRVETPVLPPVLVPRHTEILTELPPLDDYTHSIPENTNFPAGIEPQSNYIPETPPPGYISEDGETSDQQLNQSMDTGSPAELSPTTLSPVNHSLDLQPVTYSEPAFWCSIAYYELNQRVGETFHASQPSLTVDGFTDPSNSERFCLGLLSNVNRNATVEMTRRHIGRGVRLYYIGGEVFAECLSDSAIFVQSPNCNQRYGWHPATVCKIPPGCNLKIFNNQEFAALLAQSVNQGFEAVYQLTRMCTIRMSFVKGWGAEYRRQTVTSTPCWIELHLNGPLQWLDKVLTQMGSPSVRCSSMS
notes: also called 35S-F/Smad2; not shown: C-terminal FLAG tag
For the molecule B1, the binding result was “no binding”.

B2: mouse Smad4, FLAG-tagged at the C-terminus, in vitro translated (other, UniProt P97471 1-551, looked up)
chain: MDNMSITNTPTSNDACLSIVHSLMCHRQGGESETFAKRAIESLVKKLKEKKDELDSLITAITTNGAHPSKCVTIQRTLDGRLQVAGRKGFPHVIYARLWRWPDLHKNELKHVKYCQYAFDLKCDSVCVNPYHYERVVSPGIDLSGLTLQSNAPSMLVKDEYVHDFEGQPSLPTEGHSIQTIQHPPSNRASTETYSAPALLAPAESNATSTTNFPNIPVASTSQPASILAGSHSEGLLQIASGPQPGQQQNGFTAQPATYHHNSTTTWTGSRTAPYTPNLPHHQNGHLQHHPPMPPHPGHYWPVHNELAFQPPISNHPAPEYWCSIAYFEMDVQVGETFKVPSSCPVVTVDGYVDPSGGDRFCLGQLSNVHRTEAIERARLHIGKGVQLECKGEGDVWVRCLSDHAVFVQSYYLDREAGRAPGDAVHKIYPSAYIKVFDLRQCHRQMQQQAATAQAAAAAQAAAVAGNIPGPGSVGGIAPAISLSAAAGIGVDDLRRLCILRMSFVKGWGPDYPRQSIKETPCWIEIHLHRALQLLDEVLHTMPIADPQPLD
notes: also called 35S-F/Smad4; not shown: C-terminal FLAG tag
Turning to B2, the binding result is “no binding”.

(Values after patent US7354722 (SIGNAL PHARMACEUTICALS, dated 2008).)
